Consider five molecules from US20180291335A1, “MODIFIED POLYNUCLEOTIDES FOR ALTERING CELL PHENOTYPE” (ModernaTX, Inc., priority 2012, published 2018).

Common to all, as to format: cell-based, human
Series [1] relates to peripheral blood mononuclear cells (PBMC). Nature of the series: In vitro PBMC study, percent modification: G-CSF expression by ELISA. The conditions noted are these: for G-CSF Expression: 22 hours after transfection; for Average G-CSF: PBMC, average of three donors. As to the method: 480 ng of G-CSF mRNA modified with 5-methylcytosine (5mC) and pseudouridine (pseudoU) or unmodified G-CSF mRNA was transfected with 0.4 uL of Lipofectamine 2000 into peripheral blood mononuclear cells (PBMC) from three normal blood donors (D1, D2, and D3). […] The supernatant was harvested and run by ELISA 22 hours after transfection to determine the protein expression. The expression of IFN-alpha and TNF-alpha may be a secondary effect from the transfection of the G-CSF mRNA.
In general terms: An ELISA detects its analyte on a solid surface through an enzyme-linked reagent.

Series [2] relates to IFN-alpha. Nature of the series: In vitro PBMC study, percent modification: IFN-alpha expression by ELISA. To be noted: for Average IFN-a: average of three donors; for G-CSF/IFN-alpha (PC ratio): protein/cytokine ratio from averages. As to the method: (§1) The supernatant was harvested and run by ELISA 22 hours after transfection to determine the protein expression.
The subject of series [3] is TNF-alpha. The series is described as follows: In vitro PBMC study, percent modification: TNF-alpha expression by ELISA. To be noted: for Average TNF-a: average of three donors; for G-CSF/TNF-alpha (PC ratio): protein/cytokine ratio from averages. The protocol:
as §1

Series [4] concerns peripheral blood mononuclear cells (PBMC). Nature of the series: In vitro screening in PBMC: G-CSF protein expression by ELISA. The text has this: (§2) The supernatant was harvested and stored frozen until analyzed by ELISA to determine the G-CSF protein expression, and the induction of the cytokines interferon-alpha (IFN-α) and tumor necrosis factor alpha (TNF-α).
For series [5], the system named is interferon-alpha (IFN-α). The series is described as follows: In vitro screening in PBMC: interferon-alpha induction by ELISA.
Text: as §2

Series [6] deals with tumor necrosis factor alpha (TNF-α). The series is described as follows: In vitro screening in PBMC: tumor necrosis factor alpha induction by ELISA.
Text: as §2

The mark [7] stands for this setting: PBMC donor D1, 22 hours after transfection.
Setting [8] is: PBMC donor D2, 22 hours after transfection.
[9] abbreviates: PBMC donor D3, 22 hours after transfection.
[10] abbreviates: PBMC, versus natural G-CSF mRNA.
The mark [11] stands for this setting: PBMC Donor 1, 500 ng G-CSF mRNA.
Where [12] appears, read: PBMC Donor 2, 500 ng G-CSF mRNA.
Where [13] appears, read: PBMC Donor 3, 500 ng G-CSF mRNA.

On to “Luciferase: control Luciferase mRNA (SEQ ID NO: 409, Cap1) fully modified 5meC and pseudoU [reference compound]”, for which the “G-CSF Expression” value in series [1] (PBMC donor D1, 480 ng mRNA) came to 90.2 pg/mL; in series [1] (PBMC donor D2, 480 ng mRNA) it was 0.0 pg/mL; in series [1] (PBMC donor D3, 480 ng mRNA), 22.1 pg/mL.

B1: 100% modification: G-CSF mRNA (SEQ ID NO: 408, Cap1) completely modified with 5mC and pseudoU (nucleic acid)
chain: GGGAAAUAAGAGAGAAAAGAAGAGUAAGAAGAAAUAUAAGAGCCACCAUGGCCGGUCCCGCGACCCAAAGCCCCAUGAAACUUAUGGCCCUGCAGUUGCUGCUUUGGCACUCGGCCCUCUGGACAGUCCAAGAAGCGACUCCUCUCGGACCUGCCUCAUCGUUGCCGCAGUCAUUCCUUUUGAAGUGUCUGGAGCAGGUGCGAAAGAUUCAGGGCGAUGGAGCCGCACUCCAAGAGAAGCUCUGCGCGACAUACAAACUUUGCCAUCCCGAGGAGCUCGUACUGCUCGGGCACAGCUUGGGGAUUCCCUGGGCUCCUCUCUCGUCCUGUCCGUCGCAGGCUUUGCAGUUGGCAGGGUGCCUUUCCCAGCUCCACUCCGGUUUGUUCUUGUAUCAGGGACUGCUGCAAGCCCUUGAGGGAAUCUCGCCAGAAUUGGGCCCGACGCUGGACACGUUGCAGCUCGACGUGGCGGAUUUCGCAACAACCAUCUGGCAGCAGAUGGAGGAACUGGGGAUGGCACCCGCGCUGCAGCCCACGCAGGGGGCAAUGCCGGCCUUUGCGUCCGCGUUUCAGCGCAGGGCGGGUGGAGUCCUCGUAGCGAGCCACCUUCAAUCAUUUUUGGAAGUCUCGUACCGGGUGCUGAGACAUCUUGCGCAGCCGUGAAGCGCUGCCUUCUGCGGGGCUUGCCUUCUGGCCAUGCCCUUCUUCUCUCCCUUGCACCUGUACCUCUUGGUCUUUGAAUAAAGCCUGAGUAGGAAG
modifications: Cap1; full 5mC and pseudoU modification; Description of Artificial Sequence: Synthetic Transcript Sequence
For the molecule B1, the “G-CSF Expression” value in series [1] (PBMC donor D1, 480 ng mRNA) came out at 1968.9 pg/mL; in series [1] (PBMC donor D2, 480 ng mRNA), 2595.6 pg/mL; in series [1] (PBMC donor D3, 480 ng mRNA), 2835.7 pg/mL. Further, in series [1], the “Average G-CSF” value turned out to be 2466 pg/mL. Besides, the “IFN-alpha Expression” value in series [2] (setting [7]) was 336.5 pg/mL; in series [2] (setting [8]), 78.0 pg/mL; in series [2] (setting [9]) it was 46.4 pg/mL. Further, the “Average IFN-a” value in series [2] (PBMC) was 153 pg/mL. In addition, the “G-CSF/IFN-alpha (PC ratio)” value in series [2] (PBMC) is reported as 16. Further, the “better ratio of protein/cytokine production than without any modification, IFN-alpha” value in series [2] (setting [10]) amounted to 100 fold. The “TNF-alpha Expression” value was 115.0 pg/mL in series [3] (setting [7]), 15.0 pg/mL in series [3] (setting [8]) and 11.1 pg/mL in series [3] (setting [9]). Also, the “Average TNF-a” value in series [3] (PBMC) amounted to 47 pg/mL. The “G-CSF/TNF-alpha (PC ratio)” value in series [3] (PBMC) came to 52. Also, the “better ratio of protein/cytokine production than without any modification, TNF-alpha” value in series [3] (setting [10]) is listed as 27 fold.

B2: 75% modification: G-CSF mRNA (SEQ ID NO: 408) partially modified with 5mC and pseudoU, 75% modification (nucleic acid)
chain: B1 chain
modifications: 75% 5mC/pseudoU modified; Description of Artificial Sequence: Synthetic Transcript Sequence
Take B2: the “G-CSF Expression” value in series [1] (PBMC donor D1, 480 ng mRNA) came to 566.7 pg/mL; in series [1] (PBMC donor D2, 480 ng mRNA), 631.4 pg/mL; in series [1] (PBMC donor D3, 480 ng mRNA), 659.5 pg/mL. Also, the “Average G-CSF” value in series [1] was found to be 619 pg/mL. Also, the entries for the “IFN-alpha Expression” value in series [2] (setting [7]), in series [2] (setting [8]) and in series [2] (setting [9]) were 339.6 pg/mL, 107.6 pg/mL and 160.9 pg/mL, respectively. Moreover, the “Average IFN-a” value in series [2] (PBMC) amounted to 202 pg/mL. Moreover, the “G-CSF/IFN-alpha (PC ratio)” value in series [2] (PBMC) was 3.1. The “TNF-alpha Expression” value was determined as 107.4 pg/mL in series [3] (setting [7]), 21.7 pg/mL in series [3] (setting [8]) and 11.8 pg/mL in series [3] (setting [9]). The “Average TNF-a” value in series [3] (PBMC) came out at 47 pg/mL. Further, the “G-CSF/TNF-alpha (PC ratio)” value in series [3] (PBMC) was found to be 13.

B3: 0% modification: unmodified G-CSF mRNA (SEQ ID NO: 408), not modified with 5mC and pseudoU (nucleic acid)
chain: B1 chain
modifications: Description of Artificial Sequence: Synthetic Transcript Sequence
As for B3, the “G-CSF Expression” value in series [1] (PBMC donor D1, 480 ng mRNA) is 194.8 pg/mL; in series [1] (PBMC donor D2, 480 ng mRNA), 182.0 pg/mL; in series [1] (PBMC donor D3, 480 ng mRNA) it was 183.3 pg/mL. In addition, the “Average G-CSF” value in series [1] turned out to be 186 pg/mL. In addition, the “IFN-alpha Expression” value in series [2] (setting [7]) is 1421.6 pg/mL; in series [2] (setting [8]), 810.5 pg/mL; in series [2] (setting [9]) it was 1260.5 pg/mL. In addition, the “Average IFN-a” value in series [2] (PBMC) is 1164 pg/mL. Further, in series [2] (PBMC), the “G-CSF/IFN-alpha (PC ratio)” value is 0.16. Also, the “TNF-alpha Expression” value in series [3] (setting [7]) amounted to 154.6 pg/mL; in series [3] (setting [8]) it was 96.8 pg/mL; in series [3] (setting [9]), 45.9 pg/mL. For the same molecule, in series [3] (PBMC), the “Average TNF-a” value amounted to 99 pg/mL. Also, the “G-CSF/TNF-alpha (PC ratio)” value in series [3] (PBMC) is on record as 1.9.

B4: mCherry: control mCherry mRNA (SEQ ID NO: 410, Cap1) fully modified with 5-methylcytosine and pseudouridine (nucleic acid)
chain: GGGAAAUAAGAGAGAAAAGAAGAGUAAGAAGAAAUAUAAGAGCCACCAUGGUAUCCAAGGGGGAGGAGGACAACAUGGCGAUCAUCAAGGAGUUCAUGCGAUUCAAGGUGCACAUGGAAGGUUCGGUCAACGGACACGAAUUUGAAAUCGAAGGAGAGGGUGAAGGAAGGCCCUAUGAAGGGACACAGACCGCGAAACUCAAGGUCACGAAAGGGGGACCACUUCCUUUCGCCUGGGACAUUCUUUCGCCCCAGUUUAUGUACGGGUCCAAAGCAUAUGUGAAGCAUCCCGCCGAUAUUCCUGACUAUCUGAAACUCAGCUUUCCCGAGGGAUUCAAGUGGGAGCGGGUCAUGAACUUUGAGGACGGGGGUGUAGUCACCGUAACCCAAGACUCAAGCCUCCAAGACGGCGAGUUCAUCUACAAGGUCAAACUGCGGGGGACUAACUUUCCGUCGGAUGGGCCGGUGAUGCAGAAGAAAACGAUGGGAUGGGAAGCGUCAUCGGAGAGGAUGUACCCAGAAGAUGGUGCAUUGAAGGGGGAGAUCAAGCAGAGACUGAAGUUGAAAGAUGGGGGACAUUAUGAUGCCGAGGUGAAAACGACAUACAAAGCGAAAAAGCCGGUGCAGCUUCCCGGAGCGUAUAAUGUGAAUAUCAAGUUGGAUAUUACUUCACACAAUGAGGACUACACAAUUGUCGAACAGUACGAACGCGCUGAGGGUAGACACUCGACGGGAGGCAUGGACGAGUUGUACAAAUGAUAAGCUGCCUUCUGCGGGGCUUGCCUUCUGGCCAUGCCCUUCUUCUCUCCCUUGCACCUGUACCUCUUGGUCUUUGAAUAAAGCCUGAGUAGGAAG
modifications: Cap1; 5mC/pseudoU modified; Description of Artificial Sequence: Synthetic Transcript Sequence
In the case of B4, the “G-CSF Protein Expression” value worked out at 5 pg/mL in series [4] (setting [11]), 168 pg/mL in series [4] (setting [12]) and 164 pg/mL in series [4] (setting [13]). Besides, the “IFN-α Expression” value came to 100 pg/mL in series [5] (setting [11]), 75 pg/mL in series [5] (setting [12]) and 143 pg/mL in series [5] (setting [13]). For the same molecule, the “TNF-α Expression” value stood at 67 pg/mL in series [6] (setting [11]), 100 pg/mL in series [6] (setting [12]) and 133 pg/mL in series [6] (setting [13]).
